Molecular target: T1, T. gondii MAF1b (residues 173-443), co-expressed with RalGAPα1(GAP) in insect cells (Toxoplasma gondii, UniProt A0A140H546 173-443)
T1 construct: MAF1b of Toxoplasma gondii, structured C-terminal domain, residues 173-443; The results speak of nickel purification of MAF1b, the methods of streptactin purification and TEV cleavage of RalGAP (±MAF1b)
T1 sequence: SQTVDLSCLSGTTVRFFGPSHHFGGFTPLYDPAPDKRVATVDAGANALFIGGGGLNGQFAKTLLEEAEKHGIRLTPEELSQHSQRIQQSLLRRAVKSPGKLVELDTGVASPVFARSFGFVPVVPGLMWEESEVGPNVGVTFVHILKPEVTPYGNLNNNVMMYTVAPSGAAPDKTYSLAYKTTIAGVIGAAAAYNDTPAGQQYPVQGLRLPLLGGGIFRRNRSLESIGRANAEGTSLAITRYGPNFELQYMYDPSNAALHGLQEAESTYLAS
Assay: SEC; RalGAPα1(GAP) co-expressed with MAF1b_WT in T. ni cells, co-purified by affinity chromatography, TEV cleavage, then Superdex 75 16/600 in 20 mM HEPES pH 7.5, 150 mM NaCl, 1 mM DTT; fractions on SDS-PAGE
Conditions: both partners purified

B1: GAP domain of human Ral GTPase Accelerating Protein α1 (residues 1807-1988) (domain or fragment)
chain: not shown
notes: Human RalGAPα1, putative GAP domain, amino acids T1807-P1988 of NP_055805.1; also called RalGAPα1(GAP); RalGAP; not shown: twin-strep-II, N-terminal, cleaved
  binding result: binds
